Test results taken from patent US20260103529A1, “Amino Acid Sequences Directed Against the Melanocortin 4 Receptor and Polypeptides Comprising the Same for the Treatment of MC4R-Related Diseases and Disorders” (Confo Therapeutics N.V., priority 2022, published 2026).
Read-outs that look alike come from different tables or passages of the source.

Tests used:
WT human MC4R = target: T1, WT human MC4R (Homo sapiens, UniProt P32245); test: β-arrestin recruitment assay; format: cell-based; details: for EC50: WT human MC4R-expressing HEK293T cells
T1 construct: Flag (N); expressed in transfected cells; host or cells: HEK293T
T1 sequence (P32245 whole entry): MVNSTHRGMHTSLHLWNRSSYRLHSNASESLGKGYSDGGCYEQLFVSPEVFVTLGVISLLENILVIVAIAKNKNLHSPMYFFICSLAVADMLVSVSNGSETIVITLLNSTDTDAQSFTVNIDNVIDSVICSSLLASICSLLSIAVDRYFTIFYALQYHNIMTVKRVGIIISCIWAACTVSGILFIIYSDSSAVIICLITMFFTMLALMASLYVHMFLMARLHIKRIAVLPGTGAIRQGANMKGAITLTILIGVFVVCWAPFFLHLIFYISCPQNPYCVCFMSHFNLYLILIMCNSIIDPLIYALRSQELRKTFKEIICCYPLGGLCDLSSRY

human MC3R = target: T2, human MC3R (Homo sapiens, UniProt P41968); test: Flow cytometry binding to Flag-tagged receptor in HEK293T cells, MC3R; details: 1 μM
T2 construct: Flag; expressed in transfected cells; host or cells: HEK293T
T2 sequence (P41968 whole entry): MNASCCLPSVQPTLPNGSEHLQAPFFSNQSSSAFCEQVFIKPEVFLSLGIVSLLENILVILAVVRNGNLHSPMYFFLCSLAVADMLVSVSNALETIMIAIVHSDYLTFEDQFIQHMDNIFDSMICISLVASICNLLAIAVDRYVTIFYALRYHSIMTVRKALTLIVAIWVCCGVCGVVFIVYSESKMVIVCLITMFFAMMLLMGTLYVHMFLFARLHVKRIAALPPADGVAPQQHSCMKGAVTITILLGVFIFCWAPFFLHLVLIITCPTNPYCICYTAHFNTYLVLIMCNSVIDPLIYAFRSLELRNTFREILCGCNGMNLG
Procedure: (§1) To confirm MC4R activation, dose-dependent nanobody-induced cAMP signaling was assessed (Lance Ultra HTRF). […] Binding of pN162 to the human melanocortin receptor subtypes MC1R, MC2R, MC3R, MC4R or MC5R transiently expressed as Flag-tagged receptors in HEK293T cells was assessed by flow cytometry.

human wild type MC4R = human wild type MC4R (Homo sapiens, UniProt P32245); test: cAMP GloSensor assay, MC4R; format: cell-based; design: Flag; expressed in transfected cells; host or cells: HEK293T
human wild type MC4R, sequence (P32245 whole entry): as the sequence (P32245 whole entry) above
Procedure: as §1
HEK 293T cells were routinely maintained at 37° C., 5% CO2, under humidified atmosphere in Dulbecco's modified Eagle's medium (DMEM, Gibco, cat. no. 41966-029) supplemented with 10% heat-inactivated fetal bovine serum. In preparation of the experiments, cells were plated on poly-L-lysine coated white 96-well plates (Costar: 3917) at the density of 3,00E+04 cells/well. At the moment of seeding, cells were transfected with 25 ng of human MC4R in pcDNA3.1 (+) and 50 ng of p22F GLoSensor plasmid (Promega Corporation), empty pcDNA3.1 (+) vector was added to obtain 100 ng of total DNA, using XtremeGene HP (Roche). To evaluate cross-reactivity of different VHHs for other melanocortin receptors, cells were additionally transfected with 50 ng of DNA encoding one of the three melanocortin receptors MC1R/MC3R/MC5R in pcDNA3.1 (+) and 50 ng of p22F GLoSensor plasmid (Promega Corporation), using XtremeGene HP (Roche). After 24 h post transfection, growing medium was gently removed from the cells and replaced with 90 μl/well of Assay medium (OptiMEM media containing 10% FBS HI with 2% GloSensor reagent (Promega)) in which cells were incubated for 2 h at room temperature in the dark. Next, background luminescence level was recorded using the En Vision 2104 Multilabel Plate Reader (Perkin Elmer). Samples (purified VHH produced in E. coli and/or mammalian cells with or without FC fusion) or benchmark compounds were prepared at 10× working concentration in OptiMEM containing 10% heat-inactivated Fetal Bovine Serum (FBS). After addition of 10 μl of samples luminescence was recorded in a kinetic mode using the En Vision 2104 Multilabel Plate Reader (Perkin Elmer). Data were analyzed using GraphPad Prism 8 by applying nonlinear regression (curve fit).

human MC5R = target: T3, human MC5R (Homo sapiens, UniProt P33032); test: Flow cytometry binding to Flag-tagged receptor in HEK293T cells, MC5R; details: 1 μM
T3 construct: Flag; expressed in transfected cells; host or cells: HEK293T
T3 sequence (P33032 whole entry): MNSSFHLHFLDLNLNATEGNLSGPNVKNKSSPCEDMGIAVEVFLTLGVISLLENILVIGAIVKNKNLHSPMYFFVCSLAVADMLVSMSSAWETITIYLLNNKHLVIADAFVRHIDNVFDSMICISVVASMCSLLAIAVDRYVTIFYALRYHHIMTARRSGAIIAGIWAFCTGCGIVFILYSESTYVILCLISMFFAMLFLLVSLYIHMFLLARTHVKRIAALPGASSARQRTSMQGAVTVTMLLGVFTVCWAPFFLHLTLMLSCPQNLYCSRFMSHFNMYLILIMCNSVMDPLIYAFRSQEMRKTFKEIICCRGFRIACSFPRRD
Procedure: as §1

[1] = tested on: melanized reconstituted human epidermis (RHE/MEL/001); test: In vitro pigmentation assay, 3D reconstituted human epidermis, dermoscopy; format: cell-based
Procedure: The study was carried out on melanized human epidermis (RHE/MEL/001; batch CB0521-3) in vitro reconstituted with NHEKs (Normal human epidermal keratinocytes, Lonza 00192906) isolated from foreskin of 3 neonatal Caucasian donors and NHEM-DP (Normal Human Epidermal Melanocytes-Darkly pigmented) isolated form one donor (phototype IV-V). The tissues were cultured at the air-liquid interface in Epilife medium (Fisher Scientific, MEP1500CA) containing specific supplements (with among others Human Keratinocytes Growth Factors, Fisher Scientific S0015 or SO01K) and antibiotics (Gentamycin, Fisher Scientific, 15710049). They were maintained in a humid atmosphere at 37° C. with 5% CO2.
RHE/MEL/001 were reconstituted and cultivated at the air-liquid interface during 14 days in Epilife medium supplemented with specific growth supplements (as described in paragraph 1) in a humid atmosphere at 37° C. with CO2 5%.
IBMX (Sigma; 15879) at 100 µM was used as tanning reference compound to validate the experiment. A DMSO control (corresponding to the solvent used to solubilize IBMX) at 0.02% (corresponding to the final concentration in DMSO found in the culture medium for the condition treated with IBMX) was planned as well. Four replicates were planned per condition (n=4).
At the end of the 10 days treatments (at day 14), macroscopic high-resolution pictures of tissues (n=4) were taken. This was performed using the C-Cube device (Dermoscope type tool; Pixience, France) coupled to C-Cube clinical 3 software, which uses a proprietary method of colour calibration, and provides razor-sharp images of high quality and precision. The following endpoints were calculated, each one taking into account 3 values from the mode “L* a* b*” with L* reflecting the luminance/brightness (value from 0 to 100 with high values for clear skins), a* to gives an idea about the redness of the skin (value from −60 to 60 on the red/green axis) and b* to gives an idea about the yellowness of the skin (value from −60 to 60 on the blue/yellow axis): • ITA (Individual Typology Angle) characterizing the phototype, compared to a standard scale, with ITA>55° for very clear skins and ITA<−30° for black skins. • PI (Pigmentation Index) whose value is directly proportional to the skin pigmentation, with PI from 140 for clear skins to 200 for dark skins. • Colorimetric difference (score or ΔE) allows to quantify colour variation between a test condition and a reference. […]
The two test items, hydro-soluble, were evaluated in parallel of one reference compound known to be a pigmentation inducer, namely IBMX. Their capacity to stimulate the production of melanin was evaluated by visual quantification of melanin on macroscopic high resolution pictures obtained by dermoscopy. […]

human wild type MC3R = target: T4, human wild type MC3R (Homo sapiens, UniProt P41968); test: cAMP GloSensor assay, MC3R; format: cell-based
T4 construct: expressed in transfected cells; host or cells: HEK293 / HEK 293T, pcDNA3.1(+)
T4 sequence (P41968 whole entry): as the sequence (P41968 whole entry) above

human MC4R = target: T5, human MC4R (Homo sapiens, UniProt P32245); test: Flow cytometry binding to Flag-tagged receptor in HEK293T cells, MC4R; details: 1 μM
T5 construct: Flag; expressed in transfected cells; host or cells: HEK293T
T5 sequence (P32245 whole entry): as the sequence (P32245 whole entry) above
Procedure: as §1

[2] = GloSensor head-to-head receptor subtype comparison
[3] = 10 μM in culture medium, 10 days, dermoscopy

- β-arrestin2 recruitment (WT human MC4R; Flag-tagged WT human MC4R HEK293T cells): dose-dependently recruits
- EC50 (WT human MC4R; No Ca^2+, read-out: β-arrestin No Ca^2+ (EC50)): 16 ± 2.1 nM
- dependence of β-arrestin recruitment on Ca2+ ions (WT human MC4R; absence vs presence of 1 mM Ca2+): independent of Ca^2+ ions
- EC50 (WT human MC4R; read-out: β-arrestin 1 mM Ca^2+ (EC50), 1 mM Ca^2+): 23 ± 7.1 nM
- binding to MC3R by flow cytometry (human MC3R): No binding could be detected
- reduced potency in cAMP signaling via human MC4R compared to setmelanotide (human wild type MC4R; GloSensor): 6.7 fold
- potency ranking among agonistic nanobodies (human wild type MC4R; GloSensor, Flag-tagged human wild type MC4R HEK293T cells): most potent full agonist nanobody
- EC50 (human wild type MC4R; Promega GloSensor, HEK293 transiently transfected, real-time, read-out: cAMP assay (GloSensor)): 8.4 ± 3.29 nM
- EC50 (human wild type MC4R; human wild type MC4R in HEK293T cells, read-out: average EC50, real-time cAMP monitoring (GloSensor), MC4R): 13.2 ± 5.6 nM
- binding to MC5R by flow cytometry (human MC5R): No binding could be detected
- cAMP potency (EC50) MC3R (human wild type MC3R; GloSensor, average EC50, human MC3R): No effect
- binding to MC4R by flow cytometry (human MC4R): only demonstrated for MC4R
B1: pN162: agonistic anti-MC4R VHH, SEQ ID NO: 184; parental clone for potency maturation (protein)
VHH: QVQLVESGGGLVQPGGSLRLSCAASGSAFSLNVMGWYRQTPGNQRALVAEITKDGSTNYADSAKGRFTISRDNAKNTVHLQMDSLKPEDTAVYYCKARTGRIVRPLDYWGQGTQVTVSS
modifications: pN0162
- detectable cAMP signaling, MC4R (human wild type MC4R; [2]): only induced detectable signaling on MC4R
- Individual typology angle (ITA) [1, 3]: No significant effects
- pigmentation index (PI) [1, 3]: No significant effects
- visual colorimetric difference (score, ΔE) [1, 3]: No significant effects
- effect on epidermis pigmentation (conclusion of dermoscopy analysis) ([1]; 10 μM, human epidermis in culture): no effect on epidermis pigmentation
- detectable cAMP signaling, MC3R (human wild type MC3R; [2]): only induced detectable signaling on MC4R
